Results as given in paper PMC7137635, “Disrupting the LC3 Interaction Region (LIR) Binding of Selective Autophagy Receptors Sensitizes AML Cell Lines to Cytarabine” (Frontiers in Cell and Developmental Biology, 2020).
Non-standard residues stand in square brackets, D forms with d. No end group written: not given here. *: point of attachment. Biotin = O=C1N[C@H]2[C@H](CS[C@H]2CCCCC(=O)*)N1; pS = N[C@@H](COP(=O)(O)O)C(=O)O

B1: OPTN LIR peptide (172-186), biotinylated (peptide)
peptide: Biotin-GSSEDSFVEIRMAEG
notes: human optineurin (OPTN) LIR peptide, residues 172-186; also called OPTN (172–186); OPTN peptide; source: synthetic peptide (GenScript, over 75% purity)
B2: p62 LIR peptide (332-346), biotinylated (peptide)
peptide: Biotin-SGGDDDWTHLSSKEV
notes: human p62/SQSTM1 LIR peptide, residues 332-346; also called p62 (332–346); source: synthetic peptide (GenScript, over 75% purity)
B3: pS177 OPTN LIR peptide (172-186), biotinylated (peptide)
peptide: Biotin-GSSED[pS]FVEIRMAEG
notes: also called pS177 OPTN (172–186); pS177 OPTN peptide; source: synthetic peptide (GenScript, over 75% purity)

Key:
[1] = target: HIS-tagged LC3Bwt (aa 1-119) (human, UniProt Q9GZQ8 1-119); assay: BLI; Octet RED96; N-terminally biotinylated peptides on streptavidin biosensors, quenched with biocytin; HIS-tagged LC3B/GATE-16 proteins as analyte, 6.8 nM to 5 μM (LC3Bwt on NDP52 peptide: 312.5 nM to 20 μM); DPBS with 150 mM NaCl, 1% BSA, 0.02% Tween 20; 1:1 global fit; details: both partners purified
[2] = target: HIS-tagged GATE-16wt (aa 1-115) (human, UniProt P60520 1-115); assay: as above; details: both partners purified
Chain of HIS-tagged GATE-16wt (aa 1-115) (P60520 1-115): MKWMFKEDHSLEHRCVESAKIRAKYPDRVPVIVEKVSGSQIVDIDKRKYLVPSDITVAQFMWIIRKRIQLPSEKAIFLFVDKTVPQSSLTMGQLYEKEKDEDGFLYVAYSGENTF

Row | Binder | Kd [1] | binding result [2]
1 | B1 | 8.4 µM | 
2 | B2 |  | binds
3 | B3 | 0.8 ± 0.048 µM | 
